Test results from paper PMC2654154, “Molecular Basis of Filamin A-FilGAP Interaction and Its Impairment in Congenital Disorders Associated with Filamin A Mutations” (PLoS ONE, 2009).

Experiments:
[1] = biological target: FilGAP (Homo sapiens) (UniProt Q8N264); details: cited from earlier work
[2] = biological target: T1, FLAG-tagged full-length FLNa (filamin A), wild type (human, UniProt P21333 1-2647); test: pull-down; GST-His- or MBP-His-FilGAP constructs (various concentrations) with 25 nM FLAG-FLNa on FLAG-specific mAb M2 agarose; 50 mM Tris-HCl, 150 mM NaCl, 0.1% Triton X-100, 0.1 mM EGTA, pH 7.4, 1 h, 25°C; immunoblot for GST or MBP; details: both partners purified
T1 construct: filamin A (FLNa), human, full length; also called FLAG-FLNa; WT FLAG-FLNa; source: Sf9 insect cells (baculovirus), purified
T1 sequence (P21333 whole entry): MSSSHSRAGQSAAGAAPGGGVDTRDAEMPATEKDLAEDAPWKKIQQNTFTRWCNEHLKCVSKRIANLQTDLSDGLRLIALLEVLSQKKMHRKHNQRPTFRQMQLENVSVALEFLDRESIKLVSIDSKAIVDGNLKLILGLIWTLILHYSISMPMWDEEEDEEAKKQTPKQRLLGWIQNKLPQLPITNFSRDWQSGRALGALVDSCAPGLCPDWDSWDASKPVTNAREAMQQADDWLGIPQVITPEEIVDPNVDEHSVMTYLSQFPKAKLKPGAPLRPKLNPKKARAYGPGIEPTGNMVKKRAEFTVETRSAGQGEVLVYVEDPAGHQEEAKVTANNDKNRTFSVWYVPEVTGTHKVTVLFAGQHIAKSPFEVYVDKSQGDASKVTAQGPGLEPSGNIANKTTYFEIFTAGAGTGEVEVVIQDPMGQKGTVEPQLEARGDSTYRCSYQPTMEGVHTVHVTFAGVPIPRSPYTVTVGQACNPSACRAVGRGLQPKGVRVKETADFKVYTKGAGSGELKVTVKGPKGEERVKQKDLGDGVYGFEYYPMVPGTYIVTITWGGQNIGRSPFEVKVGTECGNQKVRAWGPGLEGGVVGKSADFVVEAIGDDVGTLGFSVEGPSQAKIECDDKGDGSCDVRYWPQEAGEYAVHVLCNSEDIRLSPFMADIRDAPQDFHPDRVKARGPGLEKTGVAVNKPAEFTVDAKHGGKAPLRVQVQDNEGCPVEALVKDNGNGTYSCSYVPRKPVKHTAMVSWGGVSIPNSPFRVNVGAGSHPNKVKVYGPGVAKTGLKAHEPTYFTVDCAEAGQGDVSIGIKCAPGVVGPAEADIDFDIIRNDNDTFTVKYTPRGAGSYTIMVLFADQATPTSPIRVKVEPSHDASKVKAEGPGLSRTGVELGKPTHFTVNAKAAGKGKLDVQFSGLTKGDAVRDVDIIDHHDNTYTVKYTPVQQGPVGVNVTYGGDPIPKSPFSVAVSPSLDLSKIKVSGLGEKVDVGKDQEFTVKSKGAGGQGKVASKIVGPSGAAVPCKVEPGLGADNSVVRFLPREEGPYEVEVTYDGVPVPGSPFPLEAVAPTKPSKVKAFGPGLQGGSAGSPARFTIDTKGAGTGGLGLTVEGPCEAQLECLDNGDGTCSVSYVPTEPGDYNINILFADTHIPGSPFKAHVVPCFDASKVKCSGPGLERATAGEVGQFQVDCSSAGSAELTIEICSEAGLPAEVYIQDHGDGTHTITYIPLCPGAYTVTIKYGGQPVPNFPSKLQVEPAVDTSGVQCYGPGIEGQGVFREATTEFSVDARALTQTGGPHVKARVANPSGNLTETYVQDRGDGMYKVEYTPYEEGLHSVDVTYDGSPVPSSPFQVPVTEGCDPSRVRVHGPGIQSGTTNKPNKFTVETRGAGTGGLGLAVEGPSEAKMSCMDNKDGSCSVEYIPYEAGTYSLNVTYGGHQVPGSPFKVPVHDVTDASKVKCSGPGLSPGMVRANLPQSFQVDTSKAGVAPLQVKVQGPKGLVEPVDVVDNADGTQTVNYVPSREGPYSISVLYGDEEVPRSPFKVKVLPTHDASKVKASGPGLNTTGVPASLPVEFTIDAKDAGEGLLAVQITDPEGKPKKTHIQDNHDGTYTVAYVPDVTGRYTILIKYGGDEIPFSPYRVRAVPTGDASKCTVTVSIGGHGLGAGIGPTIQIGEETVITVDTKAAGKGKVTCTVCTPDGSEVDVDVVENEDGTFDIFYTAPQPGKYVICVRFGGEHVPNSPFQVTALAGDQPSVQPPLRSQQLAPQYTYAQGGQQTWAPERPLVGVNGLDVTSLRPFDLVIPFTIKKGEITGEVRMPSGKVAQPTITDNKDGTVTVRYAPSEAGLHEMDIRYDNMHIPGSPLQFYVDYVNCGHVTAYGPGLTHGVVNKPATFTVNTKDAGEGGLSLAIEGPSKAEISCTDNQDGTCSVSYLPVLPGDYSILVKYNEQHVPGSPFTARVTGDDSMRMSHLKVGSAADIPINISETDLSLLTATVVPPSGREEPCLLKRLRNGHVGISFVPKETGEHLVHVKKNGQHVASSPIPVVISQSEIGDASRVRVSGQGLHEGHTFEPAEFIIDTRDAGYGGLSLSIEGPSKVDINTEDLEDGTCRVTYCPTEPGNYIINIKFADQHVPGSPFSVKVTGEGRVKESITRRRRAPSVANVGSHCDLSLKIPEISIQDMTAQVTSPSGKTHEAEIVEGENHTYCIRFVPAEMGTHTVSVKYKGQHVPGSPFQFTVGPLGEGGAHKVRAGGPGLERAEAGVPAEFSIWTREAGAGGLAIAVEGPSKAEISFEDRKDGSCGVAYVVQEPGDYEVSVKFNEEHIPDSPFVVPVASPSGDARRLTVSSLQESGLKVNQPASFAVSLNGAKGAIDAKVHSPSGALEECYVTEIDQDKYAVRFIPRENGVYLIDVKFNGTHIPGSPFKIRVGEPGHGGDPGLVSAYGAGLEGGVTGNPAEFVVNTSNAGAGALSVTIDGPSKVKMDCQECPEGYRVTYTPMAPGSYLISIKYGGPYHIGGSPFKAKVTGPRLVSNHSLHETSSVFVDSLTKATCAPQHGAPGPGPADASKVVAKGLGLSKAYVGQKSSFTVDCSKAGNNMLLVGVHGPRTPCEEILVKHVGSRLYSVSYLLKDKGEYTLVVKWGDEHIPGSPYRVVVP

[3] = biological target: T2, FLAG-FLNa L2439M (disease-related) (human, UniProt P21333 1-2647, L2439M); test: pull-down; full-length FilGAP or His-FilGAP lacking 649–725 (50 nM in Figure 1C) mixed with increasing amounts of wild-type or mutant FLAG-FLNa, precipitated with FLAG-specific mAb on agarose; immunoblot for FilGAP or the His tag; details: both partners purified
T2 construct: filamin A (FLNa), human, full length, transcript of the patient mutation 7315C>A; source: Sf9 cells, purified
T2 sequence (P21333 whole entry L2439M): as the sequence (P21333 whole entry) above, with L2439M counted along it

[4] = biological target: the molecule itself; test: SEC; Superose 6 10/300 GL, 20 mM Tris-HCl pH 7.4, 150 mM NaCl, 0.5 mM EGTA, 4°C; size from calibration with standards

filamin A (from UniProt P21333)
Kd [1]: 200 nM

B1: GST-His-FilGAP 649–748 (C-terminal 100 residues) (domain or fragment, human, UniProt Q8N264 649-748, looked up)
chain: SSLKQEMTKQKIEYESRIKSLEQRNLTLETEMMSLHDELDQERKKFTMIEIKMRNAERAKEDAEKRNDMLQKEMEQFFSTFGELTVEPRRTERGNTIWIQ
notes: FilGAP, human, C-terminal 100 residues; also called GST-FilGAP fragment; source: E. coli (pGEX-4T-3-HT), purified
binding result [2]: binds

B2: full-length FilGAP, purified from Sf9 insect cells (natural protein, human, UniProt Q8N264 1-748, looked up)
chain: MEENNDSTENPQQGQGRQNAIKCGWLRKQGGFVKTWHTRWFVLKGDQLYYFKDEDETKPLGTIFLPGNKVSEHPCNEENPGKFLFEVVPGGDRDRMTANHESYLLMASTQNDMEDWVKSIRRVIWGPFGGGIFGQKLEDTVRYEKRYGNRLAPMLVEQCVDFIRQRGLKEEGLFRLPGQANLVKELQDAFDCGEKPSFDSNTDVHTVASLLKLYLRELPEPVIPYAKYEDFLSCAKLLSKEEEAGVKELAKQVKSLPVVNYNLLKYICRFLDEVQSYSGVNKMSVQNLATVFGPNILRPKVEDPLTIMEGTVVVQQLMSVMISKHDCLFPKDAELQSKPQDGVSNNNEIQKKATMGQLQNKENNNTKDSPSRQCSWDKSESPQRSSMNNGSPTALSGSKTNSPKNSVHKLDVSRSPPLMVKKNPAFNKGSGIVTNGSFSSSNAEGLEKTQTTPNGSLQARRSSSLKVSGTKMGTHSVQNGTVRMGILNSDTLGNPTNVRNMSWLPNGYVTLRDNKQKEQAGELGQHNRLSTYDNVHQQFSMMNLDDKQSIDSATWSTSSCEISLPENSNSCRSSTTTCPEQDFFGGNFEDPVLDGPPQDDLSHPRDYESKSDHRSVGGRSSRATSSSDNSETFVGNSSSNHSALHSLVSSLKQEMTKQKIEYESRIKSLEQRNLTLETEMMSLHDELDQERKKFTMIEIKMRNAERAKEDAEKRNDMLQKEMEQFFSTFGELTVEPRRTERGNTIWIQ
notes: FilGAP, human, full length; Tag-free FilGAP was prepared from His-FilGAP with TEV protease; also called Purified FilGAP; source: Sf9 cells, purified (Ni-NTA)
binding result [3]: binds

B3: His-tag full-length FilGAP (natural protein, human, UniProt Q8N264 1-748, looked up)
chain: B2 chain
notes: FilGAP, human, full length; also called His-FilGAP; His-tag FilGAP; source: Sf9 cells, purified (Ni-NTA)
stoichiometry N [4]: 2
